Results: patent US20210324359A1, “USE OF GRAM-NEGATIVE LYSIN-ANTIMICROBIAL PEPTIDE (AMP) POLYPEPTIDE CONSTRUCTS IN TREATING ENDOCARDITIS” (priority 2020, published 2021)
Where two headings read alike, the source gives them in different places.

Key:
[1] = tested on: 15 P. aeruginosa isolates; test: MIC of GN370 in dog, human, rabbit and rat serum and CAAT; meropenem in CAMHB (Table 33); format: cell-based, Pseudomonas aeruginosa; settings: for MIC90: 15 isolates; for MIC GN370: diluted CAAT media
[2] = tested on: Pseudomonas aeruginosa biofilm; test: MBEC in CAA supplemented with […] human serum (Table 14); format: cell-based
In short: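 P. aeruginosa biofilms were washed and exposed to 2-fold lysin dilutions for 24 h at 37 °C, then washed, dried and stained with 0.05% crystal violet for 10 min. MBEC determined by standard methods in medium supplemented with human serum.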

[3] = tested on: P. aeruginosa; test: MIC, modified CLSI broth microdilution in CAA medium without or with […] human serum (Table 4); format: cell-based, Pseudomonas aeruginosa; for CAA/HuS MIC: CAA supplemented with 2.5% human serum
Description: 2015. […] Clinical and Laboratory Standards Institute, Wayne, Pa.

[4] = tested on: P. aeruginosa strains; test: Checkerboard synergy with meropenem in 25% CAA and […] human serum (Table 16); format: cell-based, Pseudomonas aeruginosa; settings: for FICI value (Run #1), with meropenem / FICI value (Run #2), with meropenem: 25% CAA and […] human serum
[5] = tested on: P. aeruginosa isolate CFS 1558 (PA20); format: in vivo; settings: for Log10 CFU/g of vegetation: rabbit lung
Procedure: A rabbit pulmonary model was used to assess the efficacy of the GN370 lysin alone and in combination with an antibiotic (meropenem). Initially, rabbits were infected intratracheally with P. aeruginosa isolate CFS 1558 (PA20) (3×10^9 CFU). Treatment commenced 6 hours post-infection.

[6] = tested on: P. aeruginosa (PA20); test: Rabbit infective endocarditis model (Tables 28-32, FIGS. 5-8); format: in vivo, Pseudomonas aeruginosa in rabbits
Procedure: Initially, a polyethylene catheter was placed into the rabbits' right ventricle and secured. 48 hours after catheter placement, rabbits were infected intravenously with P. aeruginosa (PA20) (6×10^9 CFU/mL). Treatment commenced 24 hours post-infection.
Data were analyzed using the Kruskal-Wallis method for multiple comparison and then adjusted with a false discovery rate approach (Benjamini-Hochberg method), using StatsDirect Software. A p-value of <0.05 was considered statistically significant.

[7] = single dose of GN370 + meropenem

B1: GN370: lysin-AMP construct: MIDR, FIRL and NPTH moieties N-terminal to GN202 lysin (SEQ ID NO: 44) (protein)
chain: MIDRFIRLNPTHGPRRPRRPGRRAPVRTSQRGIDLIKSFEGLRLSAYQDSVGVWTIGYGTTRGVTRYMTITVEQAERMLSNDIQRFEPELDRLAKVPLNQNQWDALMSFVYNLGAANLASSTLLDLLNKGDYQGAADQFPHWVNAGGKRLDGLVKRRAAERALFLEPLS
- MIC90 ([1]; dog serum): 4 µg/mL
- MIC90 ([1]; human serum): 2 µg/mL
- MIC90 ([1]; rabbit serum): 2 µg/mL
- MIC90 ([1]; rat serum): 32 µg/mL
- MIC GN370 ([1]; strain AR0231): 2 µg/mL
- Serum MIC Dog ([1]; strain AR0231, dog serum): 2 µg/mL
- Serum MIC Human ([1]; strain AR0231, human serum): 1 µg/mL
- Serum MIC Rabbit ([1]; strain AR0231, rabbit serum): 1 µg/mL
- Serum MIC Rat ([1]; strain AR0231, rat serum): 16 µg/mL
- MIC GN370 ([1]; strain AR0241): 2 µg/mL
- Serum MIC Dog ([1]; strain AR0241, dog serum): 1 µg/mL
- Serum MIC Human ([1]; strain AR0241, human serum): 1 µg/mL
- Serum MIC Rabbit ([1]; strain AR0241, rabbit serum): 1 µg/mL
- Serum MIC Rat ([1]; strain AR0241, rat serum): 32 µg/mL
- MIC GN370 ([1]; strain AR0246): 1 µg/mL
- Serum MIC Dog ([1]; strain AR0246, dog serum): 4 µg/mL
- Serum MIC Human ([1]; strain AR0246, human serum): 2 µg/mL
- Serum MIC Rabbit ([1]; strain AR0246, rabbit serum): 2 µg/mL
- Serum MIC Rat ([1]; strain AR0246, rat serum): 32 µg/mL
- MIC GN370 ([1]; strain ATCC 25668): 0.5 µg/mL
- Serum MIC Dog ([1]; strain ATCC 25668, dog serum): 2 µg/mL
- Serum MIC Human ([1]; strain ATCC 25668, human serum): 1 µg/mL
- Serum MIC Rabbit ([1]; strain ATCC 25668, rabbit serum): 2 µg/mL
- Serum MIC Rat ([1]; strain ATCC 25668, rat serum): 16 µg/mL
- MIC GN370 ([1]; strain ATCC 27853): 1 µg/mL
- Serum MIC Dog ([1]; strain ATCC 27853, dog serum): 2 µg/mL
- Serum MIC Human ([1]; strain ATCC 27853, human serum): 1 µg/mL
- Serum MIC Rabbit ([1]; strain ATCC 27853, rabbit serum): 2 µg/mL
- Serum MIC Rat ([1]; strain ATCC 27853, rat serum): 32 µg/mL
- MIC GN370 ([1]; strain PA1): 0.5 µg/mL
- Serum MIC Dog ([1]; strain PA1, dog serum): 1 µg/mL
- Serum MIC Human ([1]; strain PA1, human serum): 2 µg/mL
- Serum MIC Rabbit ([1]; strain PA1, rabbit serum): 2 µg/mL
- Serum MIC Rat ([1]; strain PA1, rat serum): 16 µg/mL
- MIC GN370 ([1]; strain PA2): 0.5 µg/mL
- Serum MIC Dog ([1]; strain PA2, dog serum): 1 µg/mL
- Serum MIC Human ([1]; strain PA2, human serum): 1 µg/mL
- Serum MIC Rabbit ([1]; strain PA2, rabbit serum): 2 µg/mL
- Serum MIC Rat ([1]; strain PA2, rat serum): 16 µg/mL
- MIC GN370 ([1]; strain PA3): 1 µg/mL
- Serum MIC Dog ([1]; strain PA3, dog serum): 2 µg/mL
- Serum MIC Human ([1]; strain PA3, human serum): 2 µg/mL
- Serum MIC Rabbit ([1]; strain PA3, rabbit serum): 2 µg/mL
- Serum MIC Rat ([1]; strain PA3, rat serum): 16 µg/mL
- MIC GN370 ([1]; strain PA19): 1 µg/mL
- Serum MIC Dog ([1]; strain PA19, dog serum): 1 µg/mL
- Serum MIC Human ([1]; strain PA19, human serum): 0.5 µg/mL
- Serum MIC Rabbit ([1]; strain PA19, rabbit serum): 0.5 µg/mL
- Serum MIC Rat ([1]; strain PA19, rat serum): 32 µg/mL
- MIC GN370 ([1]; strain PA20): 1 to 2 µg/mL
- Serum MIC Dog ([1]; strain PA20, dog serum): 2 µg/mL
- Serum MIC Human ([1]; strain PA20, human serum): 1 µg/mL
- Serum MIC Rabbit ([1]; strain PA20, rabbit serum): 2 µg/mL
- Serum MIC Rat ([1]; strain PA20, rat serum): 32 µg/mL
- MIC GN370 ([1]; strain PA22): 2 µg/mL
- Serum MIC Dog ([1]; strain PA22, dog serum): 2 µg/mL
- Serum MIC Human ([1]; strain PA22, human serum): 2 µg/mL
- Serum MIC Rabbit ([1]; strain PA22, rabbit serum): 2 µg/mL
- Serum MIC Rat ([1]; strain PA22, rat serum): 32 µg/mL
- MIC GN370 ([1]; strain PA23): 2 µg/mL
- Serum MIC Dog ([1]; strain PA23, dog serum): 2 µg/mL
- Serum MIC Human ([1]; strain PA23, human serum): 1 µg/mL
- Serum MIC Rabbit ([1]; strain PA23, rabbit serum): 2 µg/mL
- Serum MIC Rat ([1]; strain PA23, rat serum): 32 µg/mL
- MIC GN370 ([1]; strain PA24): 1 µg/mL
- Serum MIC Dog ([1]; strain PA24, dog serum): 4 µg/mL
- Serum MIC Human ([1]; strain PA24, human serum): 2 µg/mL
- Serum MIC Rabbit ([1]; strain PA24, rabbit serum): 2 µg/mL
- Serum MIC Rat ([1]; strain PA24, rat serum): 16 µg/mL
- MIC GN370 ([1]; strain PA27): 0.5 µg/mL
- Serum MIC Dog ([1]; strain PA27, dog serum): 2 µg/mL
- Serum MIC Human ([1]; strain PA27, human serum): 2 µg/mL
- Serum MIC Rabbit ([1]; strain PA27, rabbit serum): 2 µg/mL
- Serum MIC Rat ([1]; strain PA27, rat serum): 16 µg/mL
- MIC GN370 ([1]; strain PA453): 0.5 µg/mL
- Serum MIC Dog ([1]; strain PA453, dog serum): 0.5 µg/mL
- Serum MIC Human ([1]; strain PA453, human serum): 0.5 µg/mL
- Serum MIC Rabbit ([1]; strain PA453, rabbit serum): 0.5 µg/mL
- Serum MIC Rat ([1]; strain PA453, rat serum): 32 µg/mL
- MBEC in CAA supplemented with […] human serum [2]: 1 µg/mL
- CAA MIC ([3]; CAA medium, no human serum): 16000 µg/mL
- CAA/HuS MIC ([3]; CAA supplemented with […] human serum): 4000 µg/mL
- synergy with meropenem ([4]; FICI less than or equal to 0.5 = potent synergy): exhibited synergy with meropenem
- FICI value (Run #1), with meropenem ([4]; strain CFS 1292): 0.1875
- FICI value (Run #2), with meropenem ([4]; strain CFS 1292): 0.219
- FICI value (Run #1), with meropenem ([4]; strain CFS 1557 (PA19)): 0.1875
- FICI value (Run #2), with meropenem ([4]; strain CFS 1557 (PA19)): 0.240
- FICI value (Run #1), with meropenem ([4]; strain CFS 1558 (PA20)): 0.09375
- FICI value (Run #2), with meropenem ([4]; strain CFS 1558 (PA20)): 0.109
- FICI value (Run #2), with meropenem ([4]; strain CFS 1559 (PA21)): 0.438
- FICI value (Run #2), with meropenem ([4]; strain CFS 1560 (PA22)): 0.198
- FICI value (Run #2), with meropenem ([4]; strain CFS 1561 (PA23)): 0.240
- FICI value (Run #2), with meropenem ([4]; strain CFS 1562 (PA24)): 0.240
- FICI value (Run #2), with meropenem ([4]; strain CFS 1766 (ATCC 27853)): 0.156
- Bacterial burden, Kidneys ([5]; GN370 3 mg/kg): 5.06 ± 1.05 log10 CFU/g
- Bacterial burden, Lung 1 ([5]; GN370 3 mg/kg): 6.28 ± 1.12 log10 CFU/g
- Bacterial burden, Lung 2 ([5]; GN370 3 mg/kg): 6.43 ± 1.01 log10 CFU/g
- Bacterial burden, Spleen ([5]; GN370 3 mg/kg): 5.23 ± 1.25 log10 CFU/g
- Bacterial burden, Kidneys ([5]; GN370 10 mg/kg): 3.46 ± 0.78 log10 CFU/g
- Bacterial burden, Lung 1 ([5]; GN370 10 mg/kg): 6.63 ± 1.00 log10 CFU/g
- Bacterial burden, Lung 2 ([5]; GN370 10 mg/kg): 5.53 ± 1.75 log10 CFU/g
- Bacterial burden, Spleen ([5]; GN370 10 mg/kg): 3.76 ± 0.44 log10 CFU/g
- reduction in CFUs in the lungs ([5]; GN370 alone, increasing concentrations, compared to pretreatment control): 4 log10
- additional decrease of bacterial density in lung, kidney and spleen ([5]; GN-370 (10 mg/kg) in addition to meropenem, compared to meropenem or GN-370 alone): 2 log10 CFU/g
- decrease of mean bacterial density in lungs ([5]; agent alone, compared to the starting CFU and the vehicle control group): about 2 log10 CFU/g
- Log10 CFU/g of vegetation ([5]; GN370 3 mg/kg): 6.52 ± 1.01 Log10 CFU/g
- Log10 CFU/g of vegetation ([5]; GN370 10 mg/kg): 6.25 ± 1.35 Log10 CFU/g
- Log10 CFU/g of vegetation ([5]; GN370 30 mg/kg): 7.88 ± 0.50 Log10 CFU/g
- tolerability in infected rabbits ([5]; tested doses): well tolerated at the tested doses
- survival until the end of the study ([5]; treated infected rabbits): all treated infected animals survived until the end of the study
- change of cardiac vegetations counts vs untreated controls ([6]; meropenem + 3 mg/kg GN370): −1.3 log10 CFU/g
- change of cardiac vegetations counts vs vehicle-treated controls ([6]; meropenem + 3 mg/kg GN370): −0.8 log10 CFU/g
- change of cardiac vegetations counts vs untreated controls ([6]; meropenem + 10 mg/kg GN370): −1.1 log10 CFU/g
- change of cardiac vegetations counts vs vehicle-treated controls ([6]; meropenem + 10 mg/kg GN370): −0.5 log10 CFU/g
- P. aeruginosa densities in kidney, spleen and lung vs meropenem alone ([6]; meropenem + GN370 at all doses): −0.6 to−2.2 log10 CFU/g
- P. aeruginosa densities in kidney, spleen and lung vs untreated control ([6]; meropenem + GN370 at all doses): −2.0 to−3.6 log10 CFU/g
- P. aeruginosa densities in kidney, spleen and lung vs vehicle ([6]; meropenem + GN370 at all doses): −1.7 to−3.2 log10 CFU/g
- CFU reduction in cardiac vegetation tissues [6, 7]: about 1 log kill
- CFU reduction in kidney, spleen and lung tissues [6, 7]: about 3 log kill
- CFU reduction in cardiac vegetations ([6]; three days of GN370 at 10 mg/kg + 5 mg/kg meropenem, compared to both the start of treatment and a vehicle control): > 2 log CFU
